Assay results: paper PMC6344894
Like-named read-outs stand apart in the source and are kept apart here.

Key:
YbaK (Escherichia coli) [1] = biological target: YbaK (Escherichia coli) (UniProt P0AAR3); conditions: cited from earlier work
YbaK (Escherichia coli) [2] = biological target: YbaK (Escherichia coli) (UniProt P0AAR3); conditions: cited from earlier work; remark: listed apart in the source
[3] = tested on: ProXp-ala (Caulobacter crescentus); test: native MS competition; conditions: equimolar three-tRNA mix, 0.33 uM each; 5 uM protein; 1 mM Mg(OAc)2; unmodified transcript; AUC: 50 mM HEPES pH 6.8, 30 mM KCl, 1 mM MgCl2, 20 C; native MS: 200 mM ammonium acetate pH 7.5 (1 mM Mg(OAc)2 stated for ProXp-ala/YbaK competition); scale: ratio of complex tRNAPro:tRNACys:tRNAAla

ProRS (from UniProt P16659)
Kd (YbaK (Escherichia coli) [1]): 45 nM
Kd (YbaK (Escherichia coli) [2]): 550 nM

tRNAAla G35A
binding signal [3]: 1

tRNACys
binding signal [3]: 1

tRNAPro
binding signal [3]: 4
